In IntAct's records for PubMed 9311911:

B1: Protein STE5 (Saccharomyces cerevisiae), P32917 (parent)
chain: MMETPTDNIVSPFHNFGSSTQYSGTLSRTPNQIIELEKPSTLSPLSRGKKWTEKLARFQRSSAKKKRFSPSPISSSTFSFSPKSRVTSSNSSGNEDGNLMNTPSTVSTDYLPQHPHRTSSLPRPNSNLFHASNSNLSRANEPPRAENLSDNIPPKVAPFGYPIQRTSIKKSFLNASCTLCDEPISNRRKGEKIIELACGHLSHQECLIISFGTTSKADVRALFPFCTKCKKDTNKAVQCIPENDELKDILISDFLIHKIPDSELSITPQSRFPPYSPLLPPFGLSYTPVERQTIYSQAPSLNPNLILAAPPKERNQIPQKKSNYTFLHSPLGHRRIPSGANSILADTSVALSANDSISAVSNSVRAKDDETKTTLPLLRSYFIQILLNNFQEELQDWRIDGDYGLLRLVDKLMISKDGQRYIQCWCFLFEDAFVIAEVDNDVDVLEIRLKNLEVFTPIANLRMTTLEASVLKCTLNKQHCADLSDLYIVQNINSDESTTVQKWISGILNQDFVFNEDNITSTLPILPIIKNFSKDVGNGRHETSTFLGLINPNKVVEVGNVHDNDTVIIRRGFTLNSGECSRQSTVDSIQSVLTTISSILSLKREKPDNLAIILQIDFTKLKEEDSLIVVYNSLKALTIKFARLQFCFVDRNNYVLDYGSVLHKIDSLDSISNLKSKSSSTQFSPIWLKNTLYPENIHEHLGIVAVSNSNMEAKKSILFQDYRCFTSFGRRRPNELKIKVGYLNVDYSDKIDELVEASSWTFVLETLCYSFGLSFDEHDDDDEEDNDDSTDNELDNSSGSLSDAESTTTIHIDSPFDNENATANMVNDRNLLTEGEHSNIENLETVASSVQPALIPNIRFSLHSEEEGTNENENENDMPVLLLSDMDKGIDGITRRSSFSSLIESGNNNCPLHMDYI
partner: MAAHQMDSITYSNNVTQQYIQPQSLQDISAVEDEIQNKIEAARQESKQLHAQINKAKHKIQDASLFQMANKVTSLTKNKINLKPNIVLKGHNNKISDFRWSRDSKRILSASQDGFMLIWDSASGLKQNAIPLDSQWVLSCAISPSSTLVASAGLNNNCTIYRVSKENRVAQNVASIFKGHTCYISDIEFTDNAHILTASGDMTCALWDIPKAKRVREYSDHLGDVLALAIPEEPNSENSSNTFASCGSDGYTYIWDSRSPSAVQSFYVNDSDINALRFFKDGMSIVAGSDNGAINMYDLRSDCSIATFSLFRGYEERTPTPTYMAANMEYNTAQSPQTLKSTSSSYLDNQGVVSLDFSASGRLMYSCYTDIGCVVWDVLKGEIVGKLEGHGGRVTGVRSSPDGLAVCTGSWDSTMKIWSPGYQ

Variants of: B1
Settings: with gbb_yeast STE4, P18851

effect of a mutation on the interaction	Variant
disrupting interaction	C177A;C180A
